The target in this experiment is EGFR on HeLa cells (UniProt P00533 25-1210, limits assumed). The experiment in a line: cell-based or functional assay.

Positions count from the first letter of the chain named.

B1: GOMP001_bsAb_040 (bispecific antibody, human IgG1, kappa, L234A L235A)
heavy 1: EVQLVESGGGLVKTGGSHRLSCVASGFSFKKAWMNWVRKAPGKGLEWVGRIKRNSDGGTTDYAAEVKGRFILSRDDSKNTLYLQMNSLKTEDTAVYYCTTLDSSSWYVGYYYMDVWGKGTTVTVSSASTKGPSVFPLAPSSKSTSGGTAALGCLVADYFPEPVTVSWNSGALTSGVHTFPAVLQSSGLYSLSSVVTVPSSSLGTQTYICNVNHKPSNTKVDEKVEPKSCDKTHTCPPCPAPEAAGGPSVFLFPPKPKDTLMISRTPEVTCVVVDVSHEDPEVKFNWYVDGVEVHNAKTKPREEQYNSTYRVVSVLTVLHQDWLNGKEYKCKVSNKALPAPIEKTISKAKGQPREPQVYTLPPSREEMTDNQVSLTCLVKGFYPSDIAVEWESNGQPENNYKTTPPVLMSDGSFFLASKLTVDKSRWQQGNVFSCSVMHEALHNHYTQKSLSLSPG
light 1: RIQMTQSPSSVSASVGDRVTITCRASQDINNWLAWYQDKPGKAPKILIYTASNLQSGVPSRFSGSGSGTDFTLTISSLQPEDFATYFCQQAHSLPITFGQGTRLEIKRTVAAPSVFIFPPSDKQLKSGTARVVCLLNNFYPREAKVQWKVDNALQSGNSQESVTEQDSKDSTYSLSSTLTLSKADYEKHKVYACEVTHQGLSSPVTKSFNRGEC
heavy 2: QVQLVQSGAEVKKPGASVKVSCKASGYTFTSHWMHWVRYAPGQGLEWIGEFNPSNGRTNYNEKFKSKATMTVDTSTNTAYMELSSLRSEDTAVYYCASRDYDYDGRYFDYWGRGTLVTVSSASTKGPSVFPLAPSSKSTSGGTAALGCLVKDYFPEPVTVSWNSGALTSGVHTFPAVLQSSGLYSLSSVVTVPSSSLGTQTYICNVNHKPSNTKVDKKVEPKSCDKTHTCPPCPAPEAAGGPSVFLFPPKPKDTLMISRTPEVTCVVVDVSHEDPEVKFNWYVDGVEVHNAKTKPREEQYNSTYRVVSVLTVLHQDWLNGKEYKCKVSNKALPAPIEKTISKAKGQPRRPRVYTLPPSREEMTKNQVSLVCLVKGFYPSDIAVEWESNGQPENNYKTTPPVLDSDGSFFLYSVLTVDKSRWQQGNVFSCSVMHEALHNHYTQKSLSLSPG
light 2: DIQMTQSPSSLSASVGDRVTITCSASSSVTYMYWYQRKPGDAPKLLIYDTSNLASGVPSRFSGSGSGTDYTFTISSLQPEDIATYYCQQWSSHIFTFGQGTKVEIKRTVAAPSVFIFPPSDEQLKSGTASVVCLLNNFYPREAKVQWKVDNALQSGNSQESVTEQDSKDSTYSLSSTLTLSKADYEKHKVYACEVTHQGLSSPVTKSFNRGEC
B1: the Max killing % came to 89.5% and the “X… HeLa EC50” value was determined as 0.0391 nM.

B2: GOMP001_bsAb_042 (bispecific antibody, human IgG1, kappa, L234A L235A)
heavy 1: B1 heavy 1 with H18L, S55T, T59P, T60A, I71T, N79K
light 1: B1 light 1 with T20I, Q37L, K39R, I46L, T50A, N53S, S76G, F87Y, K107Q
heavy 2: B1 heavy 2
light 2: B1 light 2
Consider B2, for which the Max killing % is 84.8% and the “X… HeLa EC50” value was found to be 0.0341 nM.

B3: GOMP001_bsAb_043 (bispecific antibody, human IgG1, kappa, L234A L235A)
heavy 1: QVQLVQSGAEVKKPGASVKVSCKASGYTFTSHWMHWVRKAPGQGLEWIGEFNPSNGRTNYNEEFKSKATMTVDTSTNTAYMELSSLRSEDTAVYYCASRDYDYDGRYFDYWGQGTLVTVSSASTKGPSVFPLAPSSKSTSGGTAALGCLVADYFPEPVTVSWNSGALTSGVHTFPAVLQSSGLYSLSSVVTVPSSSLGTQTYICNVNHKPSNTKVDEKVEPKSCDKTHTCPPCPAPEAAGGPSVFLFPPKPKDTLMISRTPEVTCVVVDVSHEDPEVKFNWYVDGVEVHNAKTKPREEQYNSTYRVVSVLTVLHQDWLNGKEYKCKVSNKALPAPIEKTISKAKGQPREPQVYTLPPSREEMTDNQVSLTCLVKGFYPSDIAVEWESNGQPENNYKTTPPVLMSDGSFFLASKLTVDKSRWQQGNVFSCSVMHEALHNHYTQKSLSLSPG
light 1: B1 light 2 with D1R, R37D, D41K, E122K, S130R
heavy 2: EVQLVESGGGLVKTGGSLRLSCVASGFSFKKAWMNWVRYAPGKGLEWVGRIKRNTDGGTADYAARVKGRFTLSRDDSKKTLFLQMNSLKTEDTAVYYCTTLDSSSYYVGYYYMDVWGRGTTVTVSSASTKGPSVFPLAPSSKSTSGGTAALGCLVKDYFPEPVTVSWNSGALTSGVHTFPAVLQSSGLYSLSSVVTVPSSSLGTQTYICNVNHKPSNTKVDKKVEPKSCDKTHTCPPCPAPEAAGGPSVFLFPPKPKDTLMISRTPEVTCVVVDVSHEDPEVKFNWYVDGVEVHNAKTKPREEQYNSTYRVVSVLTVLHQDWLNGKEYKCKVSNKALPAPIEKTISKAKGQPRRPRVYTLPPSREEMTKNQVSLVCLVKGFYPSDIAVEWESNGQPENNYKTTPPVLDSDGSFFLYSVLTVDKSRWQQGNVFSCSVMHEALHNHYTQKSLSLSPG
light 2: B1 light 1 with R1D, D38R, K42D, I46L, N53S, S76G, F87Y, K123E, R131S
Take B3: the Max killing % was 76.2% and the “X… HeLa EC50” value was 0.102 nM.

B4: GOMP001_bsAb_041 (bispecific antibody, human IgG1, kappa, L234A L235A)
heavy 1: B3 heavy 1
light 1: B1 light 2 with D1R, R37D, D41K, E122K, S130R
heavy 2: B3 heavy 2 with T59P, F82Y, Y106W
light 2: DIQMTQSPSSVSASVGDRVIITCRASQDINNWLAWYLRRPGDAPKLLIYAASSLQSGVPSRFSGSGSGTDFTLTIGSLQPEDFATYYCQQAHSLPITFGQGTRLEIQRTVAAPSVFIFPPSDEQLKSGTASVVCLLNNFYPREAKVQWKVDNALQSGNSQESVTEQDSKDSTYSLSSTLTLSKADYEKHKVYACEVTHQGLSSPVTKSFNRGEC
For the molecule B4, the Max killing % worked out at 78.6% and the “X… HeLa EC50” value worked out at 0.449 nM.

The values are drawn from US20230295310A1 (ABCELLERA BIOLOGICS, published 2023).
